According to article PMC2920321, “Characterization of ftsZ Mutations that Render Bacillus subtilis Resistant to MinC” (PLoS ONE, 2010):

Target: the molecule itself
Test: sedimentation of polymers by ultracentrifugation; FtsZ 10 µM, pH 6.5 buffer, with ZapA (10 µM), without DEAE-dextran

B1: FtsZ8 (FtsZ S219L) (natural protein, B. subtilis, UniProt P17865 1-382, looked up)
chain: MLEFETNIDGLASIKVIGVGGGGNNAVNRMIENEVQGVEYIAVNTDAQALNLSKAEVKMQIGAKLTRGLGAGANPEVGKKAAEESKEQIEEALKGADMVFVTAGMGGGTGTGAAPVIAQIAKDLGALTVGVVTRPFTFEGRKRQLQAAGGISAMKEAVDTLIVIPNDRILEIVDKNTPMLEAFREADNVLRQGVQGISDLIATPGLINLDFADVKTIMLNKGSALMGIGIATGENRAAEAAKKAISSPLLEAAIDGAQGVLMNITGGTNLSLYEVQEAADIVASASDQDVNMIFGSVINENLKDEIVVTVIATGFIEQEKDVTKPQRPSLNQSIKTHNQSVPKREPKREEPQQQNTVSRHTSQPADDTLDIPTFLRNRNKRG
notes: FtsZ, Bacillus subtilis, mutant ftsZ8; source: overexpression plasmid pSG5333 (Ptac-ftsZ8, derivative of pCXZ); purified essentially as described [21]
binding result: binds
